Experiments:
[1] = biological target: Midgut brush border membranes of Helicoverpa armigera larvae; test: 125I-labelled HaSV particles with midgut brush border membranes boiled before the incubation (control)
[2] = biological target: Midgut brush border membranes of Helicoverpa armigera larvae; test: 125I-labelled HaSV particles with midgut brush border membranes preincubated 1 h with unlabelled HaSV (self-competition)
[3] = biological target: Midgut brush border membranes of Helicoverpa armigera larvae; test: 125I-labelled HaSV particles (103,000 cpm) incubated 1 h with midgut brush border membranes, pelleted, washed three times, gamma counting

Helicoverpa armigera stunt virus (HaSV) particles (from UniProt Q82462 1-647)
cpm remaining with the membranes after washing [1]: 1700 cpm
cpm remaining with the membranes after washing [2]: 2100 cpm
cpm remaining with the membranes after washing [3]: 8500 cpm

— patent publication US20050268353A1
